Experimental data published in IntAct's records for PubMed 26551074.

B1: Telomerase-associated protein of 19 kDa (Tetrahymena thermophila (strain SB210)), D2CVN7 (parent)
chain: MQQPKRNFDLYKLITDKQIDFQVADLIQDEQSSFVSVRIYGQFKCFVPKSTIQEQLDKIKNLSSKELAKNKIFKFLSEYNKNNQKQDELSHDYYGYFKVQQHQFILNLENAQREASLAVDDFYFINGRIYKTNHDILILQAHHVYQMQKPTLQLLQAASEINQN
partner: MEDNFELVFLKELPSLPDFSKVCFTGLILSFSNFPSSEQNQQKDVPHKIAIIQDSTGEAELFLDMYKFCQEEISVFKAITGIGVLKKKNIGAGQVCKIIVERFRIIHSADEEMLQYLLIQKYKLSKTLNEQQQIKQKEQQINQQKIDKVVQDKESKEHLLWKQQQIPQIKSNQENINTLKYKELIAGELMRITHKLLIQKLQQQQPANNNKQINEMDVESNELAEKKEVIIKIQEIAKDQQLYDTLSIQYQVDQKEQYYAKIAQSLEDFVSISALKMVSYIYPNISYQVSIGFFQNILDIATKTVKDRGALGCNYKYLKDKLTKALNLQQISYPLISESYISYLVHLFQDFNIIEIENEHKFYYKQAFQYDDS
B2: Telomerase-associated protein of 45 kDa (Tetrahymena thermophila (strain SB210)), Q6JXI5 (parent)
chain: B1 partner
partner: B1 chain

Variants of: B1
Details: with tap45_tetts TAP45, Q6JXI5

Effect of a mutation on the interaction, disrupting interaction strength:
MQQPKRNFDLYKLITDKQIDFQVADLIQDEQSSFVSVRIYGQFKCFVPKSTIQEQLDKIKNLSSKELAKNKIFKFLSEYNKNNQKQDELSHDYYGYFKVQQHQFILNLENAQREASLAVDDFYFINGRIYKTNHDILILQAHHVYQWQKPTLQLLQAASEINQN
MQQPKRNFDLYKLITDKQIDFQVADLIQDEQSSFVSVEIYGQFKCFVPKSTIQEQLDKIKNLSSKELAKNKIFKFLSEYNKNNQKQDELSHDYYGYFKVQQHQFILNLENAQREASLAVDDFYFINGRIYKTNHDILILQAHHVYQMQKPTLQLLQAASEINQN
MQQPKRNFDLYKLITDKQIDFQVADLIQDEQSSFVSVRIYGQFKCFVPKSTIQEQLDKIKNLSSKELAKNKIFKFLSEYNKNNQKQDELSHDYYGYFKVQQHQFILNLENAQREASLAVDDFYFINGRIYKTNHDILILQAHHVAQMQKPTLQLLQAASEINQN
MQQPKRNFDLYKLITDKQIDFQVADLIQDEQSSFVSVRIYGQFKCFVPKSTIQEQLDKIKNLSSKELAKNKIFKFLSEYNKNNQKQDELSHDYYGYFKVQQHQFILNLENAQREASLAVDDFYFINGRIYKTNHDILILQAHHVYQMQKPTLQLLQAASERNQN

Variants of: B2
Details: with tap19_tetts TAP19, D2CVN7

Effect of a mutation on the interaction, disrupting interaction strength:
MEDNFELVFLKELPSLPDFSKVCFTGLILSFSNFPSSEQNQQKDVPHKIAIIQDSTGEAELFLDMYKFCQEEISVFKAITGIGVLKKKNIGAGQVCKIIVERFRIIHSADERMLQYLLIQKYKLSKTLNEQQQIKQKEQQINQQKIDKVVQDKESKEHLLWKQQQIPQIKSNQENINTLKYKELIAGELMRITHKLLIQKLQQQQPANNNKQINEMDVESNELAEKKEVIIKIQEIAKDQQLYDTLSIQYQVDQKEQYYAKIAQSLEDFVSISALKMVSYIYPNISYQVSIGFFQNILDIATKTVKDRGALGCNYKYLKDKLTKALNLQQISYPLISESYISYLVHLFQDFNIIEIENEHKFYYKQAFQYDDS [E112R]
MEDNFELVFLKELPSLPDFSKVCFTGLILSFSNFPSSEQNQQKDVPHKIAIIQDSTGEAELFLDMYKFCQEEISVFKAITGIGVLKKKNIGAGQVCKIIVERFRIIHSADEEWLQYLLIQKYKLSKTLNEQQQIKQKEQQINQQKIDKVVQDKESKEHLLWKQQQIPQIKSNQENINTLKYKELIAGELMRITHKLLIQKLQQQQPANNNKQINEMDVESNELAEKKEVIIKIQEIAKDQQLYDTLSIQYQVDQKEQYYAKIAQSLEDFVSISALKMVSYIYPNISYQVSIGFFQNILDIATKTVKDRGALGCNYKYLKDKLTKALNLQQISYPLISESYISYLVHLFQDFNIIEIENEHKFYYKQAFQYDDS [M113W]
MEDNFELVFLKELPSLPDFSKVCFTGLILSFSNFPSSEQNQQKDVPHKIAIIQDSTGEAELFLDMYKFCQEEISVFKAITGIGVLKKKNIGAGQVCKIIVERFRIIHSRDEEMLQYLLIQKYKLSKTLNEQQQIKQKEQQINQQKIDKVVQDKESKEHLLWKQQQIPQIKSNQENINTLKYKELIAGELMRITHKLLIQKLQQQQPANNNKQINEMDVESNELAEKKEVIIKIQEIAKDQQLYDTLSIQYQVDQKEQYYAKIAQSLEDFVSISALKMVSYIYPNISYQVSIGFFQNILDIATKTVKDRGALGCNYKYLKDKLTKALNLQQISYPLISESYISYLVHLFQDFNIIEIENEHKFYYKQAFQYDDS [A109R]
MEDNFELVFLKELPSLPDFSKVCFTGLILSFSNFPSSEQNQQKDVPHKIAIIQDSTGEAELFLDMYKFCQEEISVFKAITGIGVLKKKNIGAGQVCKIIVERFRIIHSWDEEMLQYLLIQKYKLSKTLNEQQQIKQKEQQINQQKIDKVVQDKESKEHLLWKQQQIPQIKSNQENINTLKYKELIAGELMRITHKLLIQKLQQQQPANNNKQINEMDVESNELAEKKEVIIKIQEIAKDQQLYDTLSIQYQVDQKEQYYAKIAQSLEDFVSISALKMVSYIYPNISYQVSIGFFQNILDIATKTVKDRGALGCNYKYLKDKLTKALNLQQISYPLISESYISYLVHLFQDFNIIEIENEHKFYYKQAFQYDDS [A109W]
